The values that follow are results of earlier work, collected in article PMC10179296.

This data set concerns the target CCL2 (Homo sapiens) (UniProt P13500). Put plainly: isothermal fluorescence titration.

Tenascin-C, sequence (P24821 23-2201): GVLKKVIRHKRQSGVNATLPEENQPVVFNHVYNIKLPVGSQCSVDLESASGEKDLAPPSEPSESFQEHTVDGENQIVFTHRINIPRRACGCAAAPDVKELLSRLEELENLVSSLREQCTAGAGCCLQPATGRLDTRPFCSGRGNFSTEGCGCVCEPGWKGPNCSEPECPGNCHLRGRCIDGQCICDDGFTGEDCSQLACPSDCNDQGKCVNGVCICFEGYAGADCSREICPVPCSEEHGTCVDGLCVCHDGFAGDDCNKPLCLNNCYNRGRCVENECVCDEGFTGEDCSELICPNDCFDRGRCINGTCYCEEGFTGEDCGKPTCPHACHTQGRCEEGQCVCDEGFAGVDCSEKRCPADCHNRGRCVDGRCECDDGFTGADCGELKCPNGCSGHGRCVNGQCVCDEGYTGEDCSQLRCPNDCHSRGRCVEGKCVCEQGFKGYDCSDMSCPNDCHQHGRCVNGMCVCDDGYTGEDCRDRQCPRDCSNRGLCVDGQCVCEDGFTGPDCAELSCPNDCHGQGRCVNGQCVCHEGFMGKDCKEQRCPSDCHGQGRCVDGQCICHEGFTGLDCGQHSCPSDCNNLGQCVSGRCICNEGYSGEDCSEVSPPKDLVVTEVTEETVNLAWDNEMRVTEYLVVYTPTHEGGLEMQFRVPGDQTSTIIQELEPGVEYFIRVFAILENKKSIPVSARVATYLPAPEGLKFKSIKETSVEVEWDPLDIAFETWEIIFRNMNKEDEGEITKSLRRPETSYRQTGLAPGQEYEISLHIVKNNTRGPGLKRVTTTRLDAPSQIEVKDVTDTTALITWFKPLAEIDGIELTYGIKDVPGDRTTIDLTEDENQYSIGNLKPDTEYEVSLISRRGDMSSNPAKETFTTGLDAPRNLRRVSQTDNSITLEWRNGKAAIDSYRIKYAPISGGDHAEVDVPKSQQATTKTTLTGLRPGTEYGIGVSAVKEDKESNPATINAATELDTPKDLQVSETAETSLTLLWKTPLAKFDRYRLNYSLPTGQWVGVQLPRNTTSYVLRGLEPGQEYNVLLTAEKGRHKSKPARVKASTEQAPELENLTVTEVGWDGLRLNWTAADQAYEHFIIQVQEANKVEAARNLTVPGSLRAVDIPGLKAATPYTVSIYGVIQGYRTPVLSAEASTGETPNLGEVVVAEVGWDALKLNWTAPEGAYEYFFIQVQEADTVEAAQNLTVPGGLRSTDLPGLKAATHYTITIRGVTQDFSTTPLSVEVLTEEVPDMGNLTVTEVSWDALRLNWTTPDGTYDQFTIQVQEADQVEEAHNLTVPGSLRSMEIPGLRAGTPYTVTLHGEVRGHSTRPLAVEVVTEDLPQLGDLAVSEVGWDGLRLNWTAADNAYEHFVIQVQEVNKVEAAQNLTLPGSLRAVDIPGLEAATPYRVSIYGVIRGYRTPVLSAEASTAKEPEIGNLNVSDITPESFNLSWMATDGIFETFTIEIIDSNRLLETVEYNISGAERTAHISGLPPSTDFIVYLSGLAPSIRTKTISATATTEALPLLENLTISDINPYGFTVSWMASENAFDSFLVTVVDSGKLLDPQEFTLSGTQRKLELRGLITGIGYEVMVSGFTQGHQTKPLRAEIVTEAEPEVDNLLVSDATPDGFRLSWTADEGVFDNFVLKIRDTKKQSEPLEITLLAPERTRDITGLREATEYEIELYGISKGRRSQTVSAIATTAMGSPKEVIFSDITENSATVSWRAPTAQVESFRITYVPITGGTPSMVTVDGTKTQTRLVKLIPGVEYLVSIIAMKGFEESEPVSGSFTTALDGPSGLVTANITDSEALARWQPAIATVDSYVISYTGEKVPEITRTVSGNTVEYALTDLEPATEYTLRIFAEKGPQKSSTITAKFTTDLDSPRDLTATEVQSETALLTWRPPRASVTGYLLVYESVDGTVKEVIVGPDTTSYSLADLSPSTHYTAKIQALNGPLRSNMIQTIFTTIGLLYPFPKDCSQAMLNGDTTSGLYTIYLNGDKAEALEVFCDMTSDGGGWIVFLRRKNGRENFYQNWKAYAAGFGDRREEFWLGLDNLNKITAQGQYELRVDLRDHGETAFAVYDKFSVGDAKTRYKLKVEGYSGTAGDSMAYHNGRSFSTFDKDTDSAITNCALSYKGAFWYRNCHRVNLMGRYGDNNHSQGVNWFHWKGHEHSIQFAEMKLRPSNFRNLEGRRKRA
CCL2 (Homo sapiens), sequence (P13500 24-99): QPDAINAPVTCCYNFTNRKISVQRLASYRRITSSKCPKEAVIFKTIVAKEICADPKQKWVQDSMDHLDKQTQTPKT

Take Tenascin-C (from UniProt P24821): the equilibrium dissociation constant (Kd) was 2.33 µM.

The Kd is the concentration at which binding is half-saturated.
